# B1: Escherichia coli transthyretin-related protein (EcTRP), single Cys variant Asn94Cys with N-terminal His5-tag, fluorophore-labelled (enzyme, UniProt P76341 24-137, looked up)
# chain: AQQNILSVHILNQQTGKPAADVTVTLEKKADNGWLQLNTAKTDKDGRIKALWPEQTATTGDYRVVFKTGDYFKKQNLESFFPEIPVEFHINKVCEHYHVPLLLSQYGYSTYRGS
# modifications: Cys94 labelled with DyLight 550 maleimide (FRET donor) or Alexa 647 maleimide (FRET acceptor)
# Target: the molecule itself
# Test: FRET or BRET
protein,measurement,value
B1,half-life of subunit exchange,> 30 h

# — article PMC11348317 (Proceedings of the National Academy of Sciences of the …, 2024)
